Reference: patent US20220281966A1 (Amgen, published 2022)
Substitutions are numbered along the chain they refer to. Values belong to the binder of their own block, whether it stands above or below them.

Key:
[1] = target: T1, IL-13 (human IL-13, preparation not specified) (human, UniProt P35225 35-146, limits assumed); experiment: cell-based or functional assay
native human IL-13 [2] = target: T2, native human IL-13 (human, UniProt P35225 25-146); experiment: KinExA, Kinetic Direct method
T2 construct: mature; Secreted by stimulated PBMCs; also called hIL-13 (KinExA)

native human IL-13 [3] = target: T2, native human IL-13; experiment: KinExA, Kinetic inject method
native human IL-13 [4] = target: T2, native human IL-13; experiment: KinExA equilibrium in solution
[5] = target: T3, native macaque monkey IL-13 (macaque monkey, UniProt Q0PW92 19-132); experiment: KinExA equilibrium in solution
T3 construct: also called native macaque IL-13
T3 sequence (Q0PW92 entry or part of it limits assumed): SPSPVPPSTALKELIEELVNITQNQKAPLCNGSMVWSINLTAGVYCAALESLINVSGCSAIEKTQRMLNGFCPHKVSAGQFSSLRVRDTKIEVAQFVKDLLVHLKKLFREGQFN

mouse IL-13 = target: T4, mouse IL-13 (mouse, UniProt P20109 21-131, limits assumed); experiment: ELISA, epitope mapping with chimeras
T4 sequence (looked up): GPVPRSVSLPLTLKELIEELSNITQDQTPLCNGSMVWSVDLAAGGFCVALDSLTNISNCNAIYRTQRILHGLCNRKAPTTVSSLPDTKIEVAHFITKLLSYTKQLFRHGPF

native human IL-13 [6] = target: T2, native human IL-13; experiment: KinExA, Kinetic Direct method (KD repeated from Table 10)
native human IL-13 [7] = target: T2, native human IL-13; experiment: KinExA, Kinetic Direct method; calculated from kon and KD
native human IL-13 [8] = target: T2, native human IL-13; experiment: KinExA, Kinetic inject method (KD repeated from Table 10)
native human IL-13 [9] = target: T2, native human IL-13; experiment: KinExA, Kinetic inject method; calculated from kon and KD
[10] = target: T5, Recombinant Human IL-13 (R&D 213-IL-005) (human, UniProt P35225 35-146); experiment: Biacore 2000, mAb captured on goat anti-human surface, IL-13 (R&D) injected, 1:1 fit
T5 sequence (P35225 35-146 limits assumed): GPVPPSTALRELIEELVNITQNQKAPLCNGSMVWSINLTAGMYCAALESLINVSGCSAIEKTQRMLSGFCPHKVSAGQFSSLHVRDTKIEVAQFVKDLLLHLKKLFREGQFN

[11] = target: T6, Human IL-13-rabbit Fc fusion protein (human); experiment: ELISA on plates coated with IL-13RbFc, antibody without soluble competitor, detection rabbit anti Hu IgG Fc HRP
T6 construct: also called IL-13-RbFc; IL-13RbFc
T6 sequence (chain, as listed by the source limits assumed): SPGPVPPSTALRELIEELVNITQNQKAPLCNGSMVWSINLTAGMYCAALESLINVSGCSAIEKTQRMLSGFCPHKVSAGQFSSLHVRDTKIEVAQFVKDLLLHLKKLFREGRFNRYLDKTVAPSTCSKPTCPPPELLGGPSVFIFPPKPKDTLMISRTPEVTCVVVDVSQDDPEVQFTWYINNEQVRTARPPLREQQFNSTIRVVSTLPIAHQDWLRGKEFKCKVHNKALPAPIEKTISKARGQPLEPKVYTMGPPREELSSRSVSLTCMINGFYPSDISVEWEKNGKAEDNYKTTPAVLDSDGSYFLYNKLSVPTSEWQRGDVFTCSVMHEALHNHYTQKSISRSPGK

[12] = target: T1, IL-13 (human IL-13, preparation not …); experiment: cell-based or functional assay; remark: listed apart in the source
[13] = target: T7, Human IL-13-Mouse IL-13 Helix D chimera (human with mouse Helix D); experiment: ELISA on secreted chimeric IL-13
T7 construct: also called Mo HelixD
T7 chain: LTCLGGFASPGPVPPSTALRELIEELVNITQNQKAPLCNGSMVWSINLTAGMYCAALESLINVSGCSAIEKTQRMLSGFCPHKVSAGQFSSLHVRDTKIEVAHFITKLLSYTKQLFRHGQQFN

[14] = target: T5, Recombinant Human IL-13 (R&D 213-IL-005); experiment: Biacore 2000, mAb captured on goat anti-human surface, IL-13 (R&D) injected, 1:1 fit; first run
[15] = target: T5, Recombinant Human IL-13 (R&D 213-IL-005); experiment: Biacore 2000, mAb captured on goat anti-human surface, IL-13 (R&D) injected, 1:1 fit; second run

T1 sequence (P35225 35-146 limits assumed): as the sequence (P35225 35-146 limits assumed) above

IC50, Eotaxin-1 assay, Average [1]: 0.101 nM
IC50, Eotaxin-1 assay, n = 1 [1]: 0.099 nM
IC50, Eotaxin-1 assay, n = 2 [1]: 0.123 nM
IC50, Eotaxin-1 assay, n = 3 [1]: 0.08 nM
B1: antibody 353 (antibody, V domains shown)
VH: QVQLQESGPGLVKPSETLSLTCTVSGGSISTYYWSWIRQPPGKGLEWIGYIYYSGSTNYNPSLKSRVTISVDTSKNQFSLKLSSVTAADTAVYYCARDGGHYWDDAFDIWGQGTMVTVSS
VL: DIQMTQSPSSLSASVGDRVTITCRASQGIRNDLDWYQQKPGKAPKRLIYDASSLQSGVPSRFSGSGSGTEFTLTISSLQPEDFATYYCLQHDSYPFTFGPGTKVDIK

IC50, Eotaxin-1 assay, Average [1]: 0.036 nM
IC50, Eotaxin-1 assay, n = 1 [1]: 0.031 nM
IC50, Eotaxin-1 assay, n = 2 [1]: 0.04 nM
IC50, Eotaxin-1 assay, n = 3 [1]: 0.035 nM
kon (native human IL-13 [2]): 1.1e+07 M⁻¹ s⁻¹
kon (native human IL-13 [3]): 1.5e+07 M⁻¹ s⁻¹
Kd (native human IL-13 [4]): 0.024 nM
Kd [5]: 0.037 nM
binding result (mouse IL-13): no binding
Kd (native human IL-13 [6]): 0.024 nM
koff (native human IL-13 [7]): 0.00027 s⁻¹
Kd (native human IL-13 [8]): 0.024 nM
koff (native human IL-13 [9]): 0.00036 s⁻¹
Kd [10]: 0.052 nM
koff [10]: 0.00025 s⁻¹
kon [10]: 4.9e+06 M⁻¹ s⁻¹
binding result [11]: binds
B2: antibody 623 (antibody, V domains shown)
VH: EVQLVESGGGLVKPGGSLRLSCAASGFTFSNAWMSWVRQAPGKGLEWVGRIRSEIDGGTTNYAAPVKGRFTISRDDSKNTLYLQMNSLKTEDTAVYYCATDQVGAYYGDYYGMDVWGQGTLVTVSS
VL: SYELTQPPSVSVSPGQTARITCSGDALPEKYAYWYQQKSGQAPVLVIYEDSKRPSGIPERFSGSSSGTMATLTISGAQVEDEADYYCHSTDSSGNHGVFGGGTKLTVL

IC50, Eotaxin-1 assay, Average [1]: 0.035 nM
IC50, Eotaxin-1 assay, n = 1 [1]: 0.044 nM
IC50, Eotaxin-1 assay, n = 2 [1]: 0.028 nM
IC50, Eotaxin-1 assay, n = 3 [1]: 0.033 nM
IC50 (read off the curve) [12]: ~0.03 nM
Kd (native human IL-13 [4]): 0.013 nM
binding result (mouse IL-13): no binding
Kd [10]: 0.066 nM
koff [10]: 0.00029 s⁻¹
kon [10]: 4.4e+06 M⁻¹ s⁻¹
B3: antibody 643 (antibody, V domains shown)
VH: B2 VH with K89R
VL: B2 VL
notes: also called Ab 643; mAb 643

IC50, Eotaxin-1 assay, Average [1]: 0.066 nM
IC50, Eotaxin-1 assay, n = 1 [1]: 0.08 nM
IC50, Eotaxin-1 assay, n = 2 [1]: 0.053 nM
binding result (mouse IL-13): no binding
Kd [10]: 0.172 nM
koff [10]: 0.00051 s⁻¹
kon [10]: 3e+06 M⁻¹ s⁻¹
B4: antibody 602 (antibody, V domains shown)
VH: B2 VH with E54K, T60I
VL: B2 VL with S51T, H88Y
notes: also called mAb 602

IC50, Eotaxin-1 assay, Average [1]: 0.176 nM
IC50, Eotaxin-1 assay, n = 1 [1]: 0.223 nM
IC50, Eotaxin-1 assay, n = 2 [1]: 0.144 nM
IC50, Eotaxin-1 assay, n = 3 [1]: 0.16 nM
binding result (mouse IL-13): no binding
binding result [13]: no binding
B5: antibody 785 (antibody, V domains shown)
VH: not shown
VL: SYVLTQPPSVSVAPGQTARITCGGNNIGNKIVHWYQQKPGQAPVLVVYDDSDRPSGIPERFSGSNSGNTATLTISRVEAGDEADYYCQVWDSSSDHVVFGGGTKLTVL
notes: lambda light chain

IC50, Eotaxin-1 assay, Average [1]: 0.245 nM
IC50, Eotaxin-1 assay, n = 1 [1]: 0.213 nM
IC50, Eotaxin-1 assay, n = 2 [1]: 0.304 nM
IC50, Eotaxin-1 assay, n = 3 [1]: 0.217 nM
B6: antibody 11.18.3 (antibody, V domains shown)
VH: QVQLVESGGGVVQPGRSLRLSCVASGFTFSSYDMHWVRQAPGKGLEWVAVIWYDGSNKYYADSVQGRFTISRDNSKNTLYLQMNSLRAEDTAVYYCTSEDSSGWYDGWFDPWGQGTLVTVSS
VL: DIQMTQSPSSLSASVGDRVTITCRASQGISNYLAWYQQKPGKVPKVLIYAASTLQSGVPSRFSGSGSGTDFTLTISSLQPEDVATYYCQKYNSAPFTFGPGTKVDIK

IC50, Eotaxin-1 assay, Average [1]: 0.054 nM
IC50, Eotaxin-1 assay, n = 1 [1]: 0.038 nM
IC50, Eotaxin-1 assay, n = 2 [1]: 0.069 nM
IC50, Eotaxin-1 assay, n = 3 [1]: 0.053 nM
binding result (mouse IL-13): no binding
binding result [13]: no binding
Kd [14]: 0.189 nM
koff [14]: 0.00038 s⁻¹
kon [14]: 2e+06 M⁻¹ s⁻¹
Kd [15]: 0.109 nM
koff [15]: 0.00027 s⁻¹
kon [15]: 2.5e+06 M⁻¹ s⁻¹
B7: antibody 693 (antibody, V domains shown)
VH: QVQLQESGPGLVKPSETLSLTCSVSGGSISSYYWSWIRQPAGKGLEWIGRIYMTGRTNYNSSLKSRVTMSIDTSKNQLSLKLSFMTAADTAVYYCARESGSSYSYDYWGQGTLVTVSS
VL: SYVLTQPPSVSVAPGQTARITCGGNNIGSKGVHWYQQKPGQAPVLVVYDDSDRPSGIPERFSGSNSGNTATLTISRVEAGDEADYYCQVWVSSSDHHVVFGGGTKLTVV
notes: also called sc693
